# T1: Recombinant Fructose Bisphosphate Aldolase (rFBA), FBA-HAT fusion protein, 33.5 kDa (Streptococcus pneumoniae TIGR4, UniProt P0A4S1 1-293)
# T1 construct: Expressed in E. coli BL21(DE3)pLysS and purified on Ni-NTA in 8 M urea; also called rFBA-HAT fusion protein; recombinant FBA; not shown: HAT (histidine) tag from the pHAT expression vector
# T1 sequence (looked up): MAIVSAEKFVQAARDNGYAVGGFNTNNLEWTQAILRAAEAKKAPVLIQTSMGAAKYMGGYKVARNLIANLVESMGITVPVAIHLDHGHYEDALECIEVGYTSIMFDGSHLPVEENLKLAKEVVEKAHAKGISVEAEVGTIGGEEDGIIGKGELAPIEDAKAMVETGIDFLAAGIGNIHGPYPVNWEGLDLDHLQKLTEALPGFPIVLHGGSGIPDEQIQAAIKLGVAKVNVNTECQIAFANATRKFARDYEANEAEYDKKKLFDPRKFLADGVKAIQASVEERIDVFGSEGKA
# B1: Flamingo Cadherin receptor derived synthetic peptide (FCRP), 15 amino acids (peptide)
# peptide: H-ADSDSDSDLSLEEER-OH
# notes: Derived from human Flamingo homolog 1 (Q9NYQ7); also called FC peptide; FC derived synthetic peptide
# Biological target: T1, Recombinant Fructose Bisphosphate …
# Experiment: Western blot like overlay: rFBA on nitrocellulose probed with FCRP, rabbit anti-FCRP-KLH serum and anti-rabbit IgG
binder,measurement,value
B1,binding result,binds
